{
  "source": "paper PMC3486911",
  "about": "(PLoS Pathogens, 2012)",
  "assay_in_all_cases": "SPR",
  "key": {"[1]": {"molecular_target": "V3 fHbp Pro125 mutant (to Ala) (Neisseria meningitidis)"}, "[2]": {"molecular_target": "V3 fHbp Gly49 mutant (to Ala) (Neisseria meningitidis) (UniProt E6MV22)"}, "[3]": {"molecular_target": "V3 fHbp Ser44 mutant (to Ala) (Neisseria meningitidis)"}, "[4]": {"molecular_target": "V3 fHbp Ile89 mutant (to Ala) (Neisseria meningitidis) (UniProt E6MV22)"}, "[5]": {"molecular_target": "V3 fHbp Val114 mutant (to Ala) (Neisseria meningitidis)"}, "[6]": {"molecular_target": "V3 fHbp Val91 mutant (to Ala) (Neisseria meningitidis)"}, "[7]": {"molecular_target": "V3 fHbp Leu98 mutant (to Ala) (Neisseria meningitidis)"}, "[8]": {"molecular_target": "V1 fHbp (V1.p1), wild type (Neisseria meningitidis) (UniProt Q9JXV4)"}, "[9]": {"molecular_target": "V3 fHbp Asn123 mutant (to Ala) (Neisseria meningitidis)"}, "[10]": {"molecular_target": "V3 fHbp Asn48 mutant (to Ala) (Neisseria meningitidis)"}, "[11]": {"molecular_target": "V3 fHbp Pro125 mutant (to Ala) (Neisseria meningitidis)", "remark": "listed apart in the source"}, "[12]": {"molecular_target": "V3 fHbp Ser44 mutant (to Ala) (Neisseria meningitidis)", "remark": "listed apart in the source"}, "[13]": {"molecular_target": "V3 fHbp His190 mutant (to Ala) (Neisseria meningitidis)"}, "[14]": {"molecular_target": "V3 fHbp Asp126 mutant (to Ala) (Neisseria meningitidis)"}, "[15]": {"molecular_target": "V3 fHbp Val114 mutant (to Ala) (Neisseria meningitidis)", "remark": "listed apart in the source"}, "[16]": {"molecular_target": "V3 fHbp Lys127 mutant (to Ala) (Neisseria meningitidis)"}, "[17]": {"molecular_target": "V3 fHbp Ile122 mutant (to Ala) (Neisseria meningitidis)"}, "[18]": {"molecular_target": "V3 fHbp (V3.p28), wild type (Neisseria meningitidis) (UniProt E6MV22)"}, "[19]": {"molecular_target": "V3 fHbp Pro46 mutant (to Ala) (Neisseria meningitidis)"}, "[20]": {"molecular_target": "V3 fHbp Val91 mutant (to Ala) (Neisseria meningitidis)", "remark": "listed apart in the source"}, "[21]": {"molecular_target": "V3 fHbp Gln87 mutant (to Ala) (Neisseria meningitidis) (UniProt E6MV22)"}, "[22]": {"molecular_target": "V3 fHbp Ala99Glu (Neisseria meningitidis)"}, "[23]": {"molecular_target": "V3 fHbp Asp43 mutant (to Ala) (Neisseria meningitidis)"}, "[24]": {"molecular_target": "V3 fHbp Leu98 mutant (to Ala) (Neisseria meningitidis)", "remark": "listed apart in the source"}, "[25]": {"molecular_target": "V1 fHbp (V1.p1), wild type (Neisseria meningitidis) (UniProt Q9JXV4)", "remark": "listed apart in the source"}, "[26]": {"molecular_target": "V3 fHbp Ile96 mutant (to Ala) (Neisseria meningitidis)"}, "[27]": {"molecular_target": "V3 fHbp Asn123 mutant (to Ala) (Neisseria meningitidis)", "remark": "listed apart in the source"}, "[28]": {"molecular_target": "V3 fHbp Gln134 mutant (to Ala) (Neisseria meningitidis) (UniProt E6MV22)"}, "[29]": {"molecular_target": "V3 fHbp Thr128 mutant (to Ala) (Neisseria meningitidis)"}, "[30]": {"molecular_target": "V3 fHbp Asp92 mutant (to Ala) (Neisseria meningitidis)"}, "[31]": {"molecular_target": "V3 fHbp Asn48 mutant (to Ala) (Neisseria meningitidis)", "remark": "listed apart in the source"}},
  "note": "pKd: −log10 of the molar value. “And” between values parts separate entries of the source, which are not always exact repeats. Equal entries are not always repeated. Where two headings read alike, the source gives them in different places.",
  "data": [
    {"substance": "human factor H CCP 6 and 7 (fH67) (domain or fragment)", "values": [
      {"measurement": "pKd", "setting": "[1]", "result": "8.49 and 8.47"},
      {"measurement": "pKd", "setting": "[2]", "result": 8.52},
      {"measurement": "pKd", "setting": "[3]", "result": "8.00 and 8.01"},
      {"measurement": "pKd", "setting": "[4]", "result": 7.42},
      {"measurement": "pKd", "setting": "[5]", "result": "8.49 and 8.48"},
      {"measurement": "pKd", "setting": "[6]", "result": "8.25 and 8.19"},
      {"measurement": "pKd", "setting": "[7]", "result": "7.07 and 7.06"},
      {"measurement": "pKd", "setting": "[8]", "result": "8.70 and 8.68"},
      {"measurement": "pKd", "setting": "[9]", "result": "8.13 and 8.07"},
      {"measurement": "pKd", "setting": "[10]", "result": "8.44 and 8.43"},
      {"measurement": "pKd", "setting": "[11]", "result": 8.48},
      {"measurement": "pKd", "setting": "[12]", "result": 8.00},
      {"measurement": "pKd", "setting": "[13]", "result": 8.47},
      {"measurement": "pKd", "setting": "[14]", "result": 8.19},
      {"measurement": "pKd", "setting": "[15]", "result": 8.49},
      {"measurement": "pKd", "setting": "[16]", "result": 8.53},
      {"measurement": "pKd", "setting": "[17]", "result": 7.99},
      {"measurement": "pKd", "setting": "[18]", "result": 8.63},
      {"measurement": "pKd", "setting": "[19]", "result": 10.55},
      {"measurement": "pKd", "setting": "[20]", "result": 8.22},
      {"measurement": "pKd", "setting": "[21]", "result": 9.15},
      {"measurement": "pKd", "setting": "[22]", "result": 7.13},
      {"measurement": "pKd", "setting": "[23]", "result": 8.49},
      {"measurement": "pKd", "setting": "[24]", "result": 7.06},
      {"measurement": "pKd", "setting": "[25]", "result": 8.69},
      {"measurement": "pKd", "setting": "[26]", "result": 7.84},
      {"measurement": "pKd", "setting": "[27]", "result": 8.10},
      {"measurement": "pKd", "setting": "[28]", "result": 8.58},
      {"measurement": "pKd", "setting": "[29]", "result": 8.38},
      {"measurement": "pKd", "setting": "[30]", "result": 8.32},
      {"measurement": "pKd", "setting": "[31]", "result": 8.44}
    ]}
  ]
}
